Laboratory results as given in patent US20200247894A1 (Regeneron, published 2020).

T1: Human IL2Rγ extracellular domain expressed with a C-terminal mouse IgG2a Fc tag (human)
T1 construct: whole entry is the Fc-fused construct; also called hIL-2Rg-mFc
T1 chain: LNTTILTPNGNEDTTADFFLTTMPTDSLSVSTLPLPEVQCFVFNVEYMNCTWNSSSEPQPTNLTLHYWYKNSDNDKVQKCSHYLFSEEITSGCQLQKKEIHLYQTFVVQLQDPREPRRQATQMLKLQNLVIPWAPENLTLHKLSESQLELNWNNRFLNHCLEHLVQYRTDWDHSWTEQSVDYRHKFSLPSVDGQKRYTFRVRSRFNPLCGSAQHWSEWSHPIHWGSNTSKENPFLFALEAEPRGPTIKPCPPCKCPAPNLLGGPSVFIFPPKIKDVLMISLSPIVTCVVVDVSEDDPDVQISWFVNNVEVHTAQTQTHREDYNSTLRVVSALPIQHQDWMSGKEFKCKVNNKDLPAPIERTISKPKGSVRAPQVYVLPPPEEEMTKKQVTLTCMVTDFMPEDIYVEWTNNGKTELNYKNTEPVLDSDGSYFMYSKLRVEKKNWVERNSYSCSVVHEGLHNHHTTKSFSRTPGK

T2: Mouse IL2Rγ extracellular domain expressed with a C-terminal myc-myc-hexahistidine tag (mouse)
T2 construct: whole entry is the tagged construct; also called mIL-2Rg-MMH
T2 chain: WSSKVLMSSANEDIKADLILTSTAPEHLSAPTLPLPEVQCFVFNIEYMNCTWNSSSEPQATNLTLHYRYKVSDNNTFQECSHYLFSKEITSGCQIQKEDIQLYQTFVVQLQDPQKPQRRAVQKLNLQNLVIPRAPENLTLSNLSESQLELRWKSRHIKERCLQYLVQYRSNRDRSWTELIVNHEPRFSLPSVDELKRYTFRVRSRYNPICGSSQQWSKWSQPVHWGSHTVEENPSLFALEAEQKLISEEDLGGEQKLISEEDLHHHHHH

T3: Macaca fascicularis IL2Rγ extracellular domain expressed with a C-terminal myc-myc-hexahistidine tag (Macaca fascicularis)
T3 construct: whole entry is the tagged construct; also called mfIL-2Rg-MMH
T3 chain: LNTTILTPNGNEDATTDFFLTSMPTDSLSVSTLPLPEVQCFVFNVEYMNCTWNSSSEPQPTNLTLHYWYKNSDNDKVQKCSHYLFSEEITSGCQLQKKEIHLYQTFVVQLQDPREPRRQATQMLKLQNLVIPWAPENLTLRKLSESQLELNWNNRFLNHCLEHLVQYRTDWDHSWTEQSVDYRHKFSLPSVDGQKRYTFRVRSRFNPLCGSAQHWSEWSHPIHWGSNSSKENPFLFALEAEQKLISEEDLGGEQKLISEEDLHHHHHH

T4: Rat IL2Rγ extracellular domain expressed with a C-terminal myc-myc-hexahistidine tag (rat)
T4 construct: whole entry is the tagged construct; also called rIL-2Rg-MMH; rat IL-2Rg-MMH
T4 chain: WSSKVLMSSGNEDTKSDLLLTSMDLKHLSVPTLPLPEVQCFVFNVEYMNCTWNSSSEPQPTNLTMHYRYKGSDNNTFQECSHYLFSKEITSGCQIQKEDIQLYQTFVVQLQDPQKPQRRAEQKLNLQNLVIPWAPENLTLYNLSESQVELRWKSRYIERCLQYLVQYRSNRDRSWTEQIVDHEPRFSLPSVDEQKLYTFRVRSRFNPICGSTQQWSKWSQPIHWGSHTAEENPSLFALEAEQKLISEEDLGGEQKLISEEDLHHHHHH


Key:
[1] = molecular target: T1, Human IL2Rγ extracellular domain …; assay: SPR Biacore 4000, anti-hFc-captured mAb, 37 C
Procedure: (§1) Equilibrium dissociation constants (KD values) for IL-2Rγ binding to purified anti-IL2Rγ monoclonal antibodies were determined using a Biacore 4000 instrument equipped with a real-time surface plasmon resonance biosensor. All binding studies were performed in 10 mM HEPES, 150 mM NaCl, 3 mM EDTA, and 0.05% v/v Surfactant Tween-20, pH 7.4 (HBS-ET) running buffer at 25° C. and 37° C. The Biacore sensor surface was first derivatized by amine coupling with a monoclonal mouse anti-human Fc antibody (GE, # BR-1008-39) to capture anti-IL2Rγ monoclonal antibodies.
(§2) The dissociation of monoclonal antibody bound IL2Rγ reagents were monitored for 8-10 minutes in HBS-ET running buffer. Kinetic association (kₐ) and dissociation (kd) rate constants were determined by fitting the real-time sensorgrams to a 1:1 binding model using Scrubber 2.0c curve fitting software. Binding dissociation equilibrium constants (KD) and dissociative half-lives (t_{1/2}) were calculated from the kinetic rate constants as: […]

[2] = molecular target: T2, Mouse IL2Rγ extracellular domain …; assay: SPR Biacore 4000, anti-hFc-captured mAb, 37 C
Procedure: as §1, §2

[3] = molecular target: T3, Macaca fascicularis IL2Rγ extracellular …; assay: SPR Biacore 4000, anti-hFc-captured mAb, 37 C
Procedure: as §1, §2

[4] = molecular target: T4, Rat IL2Rγ extracellular domain …; assay: SPR Biacore 4000, anti-hFc-captured mAb, 37 C
Procedure: as §1, §2

[5] = molecular target: T1, Human IL2Rγ extracellular domain …; assay: SPR Biacore 4000, anti-hFc-captured mAb, 25 C
Procedure: as §1, §2

[6] = molecular target: T2, Mouse IL2Rγ extracellular domain …; assay: SPR Biacore 4000, anti-hFc-captured mAb, 25 C
Procedure: as §1, §2

[7] = molecular target: T4, Rat IL2Rγ extracellular domain …; assay: SPR Biacore 4000, anti-hFc-captured mAb, 25 C
Procedure: as §1, §2

Binder	50 nM Ag Bound [1] [RU]	Kd [1] [nM]	koff [1] [s⁻¹]	kon [1] [M⁻¹ s⁻¹]	t1/2 [1] [min]	100 nM Ag Bound [2] [RU]	100 nM Ag Bound [3] [RU]	Kd [3] [nM]	koff [3] [s⁻¹]	kon [3] [M⁻¹ s⁻¹]	t1/2 [3] [min]	100 nM Ag Bound [4] [RU]	50 nM Ag Bound [5] [RU]	Kd [5] [nM]	koff [5] [s⁻¹]	kon [5] [M⁻¹ s⁻¹]	t1/2 [5] [min]	100 nM Ag Bound [6] [RU]	100 nM Ag Bound [7] [RU]	binding result [7]	other results
H4H12858P (antibody, human IgG4 S228P, kappa, V domains shown, fully human anti-IL2Rgamma mAb, human IgG4 Fc; also called REGN9433) VH: EVQLVESGGDLVQPGGSLRLSCTASGFIFRNYAMNWVRQAPGKGLEWLSGILGSNDNTYYVDSVKGRFTISRDNSRNTLYLQMNSLRAEDSAVYYCAKGDAGGFDYWGQGTLVTVSS VL: DVVMTQSPLSLPVILGQPASISCRSSQSLVSSDGNTYLNWFQQRPGQSPRRLIYKVSNRDSGVPDRFSGSGSGTDFTLKISRVEAEDVGAYYCMQGSYWPPTFGQGTKLEIKR	37	1.49	0.00025	167000	46	0	47	4.77	0.00148	309000	8	0	46	0.855	9.94e-05	116000	116	2	0	no binding (tested: 100 nM)	binding result [6]: no binding (tested: 100 nM)
H4H12871P (antibody, human IgG4 S228P, kappa, V domains shown, fully human anti-IL2Rgamma mAb, human IgG4 Fc; also called REGN9434) VH: QVQLQESGPGLVKPSQTLSLTCTVSGGSITSGGYYWSWIRQYPGQGLEWIGYIYYSGKTYYNPSFTSRITISVDTSKKQFSLKMSSVTAADTAVYYCARAGFTSSNGWFDPWGQGTLVTVSS VL: DIQMTQSPSSLSASVGDRVTITCRASQNIRSYLNWYQQKPGKAPKLLIYSASSLQSGVPSRFSGSGSGTDFTLTISSLQPEDFPTYYCQQTYSSPWTFGPGTKVEIKR	81	0.0505	2.39e-05	473000	484	-1	55	12.7	0.00261	206000	4	1	103	0.144	5.22e-05	363000	221	0	1	no binding (tested: 100 nM)	–
H4H12884P (antibody, human IgG4 S228P, kappa, V domains shown, fully human anti-IL2Rgamma mAb, human IgG4 Fc) VH: QVQLQESGPGLVKPSQTLSLTCTVSGGSISSGGYYWSWIRQHPGKGLEWIGFIYYSGKTYYNPSLKSRLTISVDTSKSQFSLKLRSVTAADTAVYYCARLGYTNSAGWFDPWGQGTLVTVSS VL: DIQMTQSPSSLSASVGDRVTITCRASQSISSYLNWYQQKPGKAPNLLIYAASSLQSGVPSRFSGSGSGTDFTLTISSLQPEDLATYYCQQSYTTPFTFGPGTKVDIKR	85	0.0554	2.69e-05	486000	429	1	59	16.1	0.00321	200000	4	4	112	0.113	4.02e-05	355000	287	2	4	no binding (tested: 100 nM)	binding result [6]: no binding (tested: 100 nM)
H4H12926P2 (antibody, human IgG4 S228P, kappa, V domains shown, fully human anti-IL2Rgamma mAb, human IgG4 Fc) VH: QVQLQQSGPGLVKPSQTLSLTCAISGDSVSSNIAAWNWIRLSPSRGLEWLGRTFFRSTWFYDYSLSVKGRITINPDTSKNQFSLHLNSVTPEDAAVYYCARTGRRWSLDYWGQGTLVTVSS VL: not shown	11	16	0.00326	204000	4	0	–	–	–	–	–	2	46	5.21	0.000962	185000	12	0	2	no binding (tested: 100 nM)	binding result [6]: no binding (tested: 100 nM)
H4H12890P (antibody, human IgG4 S228P, kappa, V domains shown, fully human anti-IL2Rgamma mAb, human IgG4 Fc) VH: EVQLVESGGGLVQPGGSLRLSCAASGFTFNNYAMHWVRQAPGKGLEYVSSISSSGGSTYYEDSVKGRFTISRDNSKNTLYLQMGSLRAEDMAVYYCARSFYGSGTYYDTFDMWGQGTMVTVSS VL: DIQMTQSPSSLSASIGDRVTITCRASQSISRYLNWYQQKPGKAPKLLIYAASSLQSGVPSRFSASGSGTDFTLTISSLQPEDFATYYCQQSYSTPFTFGQGTKLEIKR	–	–	–	–	–	1	20	14	0.00131	93600	9	0	–	–	–	–	–	1	0	no binding (tested: 100 nM)	binding result [6]: no binding (tested: 100 nM)
H4H12899P (antibody, human IgG4 S228P, kappa, V domains shown, fully human anti-IL2Rgamma mAb, human IgG4 Fc) VH: QVQLVESGGDLVKPGGSLRLSCATSGFTFSDFYMTWIRQAPGKGLEWISYISNSGSIVKYADSVKGRFTISRDNAKNSLYLQMNSLRAEDTAIYYCARFYGDRWGQGTLVTVSS VL: DIQLTQSPSFLSASVGDRVTITCWASQGISTFLAWYQQKPGKAPKLLIYAASTLQSGVPSRFSGSGSGTDFTLTISSLQPEDFATYHCQQLNNYPWTFGQGTKVEIKR	–	–	–	–	–	19	31	6.71	0.00216	322000	5	16	–	–	–	–	–	51	39	–	Kd [2]: 55.9 nM; koff [2]: 0.0108 s⁻¹; kon [2]: 193000 M⁻¹ s⁻¹; t1/2 [2]: 1.1 min; Kd [4]: 51.6 nM; koff [4]: 0.00753 s⁻¹; kon [4]: 146000 M⁻¹ s⁻¹; t1/2 [4]: 1.5 min; Kd [6]: 18.4 nM; koff [6]: 0.00167 s⁻¹; kon [6]: 90600 M⁻¹ s⁻¹; t1/2 [6]: 7 min; Kd [7]: 21.7 nM; koff [7]: 0.00153 s⁻¹; kon [7]: 70400 M⁻¹ s⁻¹; t1/2 [7]: 8 min
H4H12900P (antibody, human IgG4 S228P, kappa, V domains shown, fully human anti-IL2Rgamma mAb, human IgG4 Fc) VH: QVQLVESGGGLVKPGGSLRLSCEASGFTFNDFYMTWIRQAPGKGLEWIAYISKSGDKMRYADSVKGRFSTSRDNAKNSLSLQMNSLRAEDTAVYYCARFYGDIWGQGTLVTVSS VL: DIQLTQSPSFLSASVGDRVTITCWASQDISSFLVWYQQKPGKAPNLLIYAASALQSGVPSRFSGSGSGTEFTLTISSLQPEDFASYYCEQLNNYPWTFGQGTKVEIKR	–	–	–	–	–	32	38	3.18	0.00154	483000	8	27	–	–	–	–	–	76	57	–	Kd [2]: 6.11 nM; koff [2]: 0.00317 s⁻¹; kon [2]: 519000 M⁻¹ s⁻¹; t1/2 [2]: 4 min; Kd [4]: 8.7 nM; koff [4]: 0.00363 s⁻¹; kon [4]: 417000 M⁻¹ s⁻¹; t1/2 [4]: 3.2 min; Kd [6]: 3.76 nM; koff [6]: 0.000467 s⁻¹; kon [6]: 124000 M⁻¹ s⁻¹; t1/2 [6]: 25 min; Kd [7]: 6.02 nM; koff [7]: 0.000619 s⁻¹; kon [7]: 103000 M⁻¹ s⁻¹; t1/2 [7]: 19 min
